According to patent US20230212549A1, “COMPOUNDS COMPRISING A […] LIGAND AND USE THEREOF” (priority 2021, published 2023):
Numbered stars: 1 amine (or outer) side, 2 acyl side, 3 side chain; on linkers, the order of the positions; unused ones are H or OH. Bridge positions count the residues as written; N and C are the ends. Square brackets hold non-standard residues; d marks the D form. Primed or numbered codes have the meaning given here. Side chains are listed from the residue outwards. * marks the point of attachment. tMeBn(DOTA-PP) = 1,3,5-trimethylbenzylidene, two thioethers to Cys, third CH2 bound to one N of piperazine whose other N bears DOTA, O=C(O)CN1CCN(CC(=O)O)CCN(CC(=O)N2CCN(Cc3cc(C[*:1])cc(C[*:2])c3)CC2)CCN(CC(=O)O)CC1; Ttds(6) = 1,13-Diamino-4,7,10-trioxatridecan-succinamic acid, O=C(CCC(=O)[*:2])NCCCOCCOCCOCCCN[*:1]; 3MeBn = 3-Methylbenzylidene (m-xylylene thioether bridge from α,α′-dibromo-m-xylene); N4Ac = 6-Carboxy-1,4,8,11-tetraazaundecane, an N4-chelator, NCCNCC(CNCCN)C(=O)*; Bip = N[C@@H](Cc1ccc(-c2ccccc2)cc1)C(=O)O; Met(O2) = CS(=O)(=O)CC[C@H](N)C(=O)O; mXylylene = c1cc(C[*:1])cc(C[*:2])c1; NMeE = CN[C@@H](CCC(=O)O)C(=O)O; DOTA′ = not defined here; Nle = CCCC[C@H](N)C(=O)O; Nphe = O=C(O)CNCc1ccccc1; Apr = not defined here; Hexanoyl = CCCCCC(=O)*

B1: N4Ac-Ttds-Glu(AGLU′)-Nle-[Cys-(3MeBn)-Pro-Pro-Thr-Glu-Phe-Cys]-OH (peptide)
peptide: N4Ac-[Ttds(6)]E[Nle]CPPTEFC-OH
modifications: linker 4-10 via 3MeBn; not fully specified (residue 2); printed as N4Ac-Ttds-Glu(AGLU′)-Nle-[Cys-(3MeBn)-Pro-Pro-Thr-Glu-Phe-Cys]-OH
B2: Hex-[Cys(tMeBn(DOTA-PP))-Thr-Gln-Pro-Phe-Pro-Cys]-Asp-NH2 (peptide)
peptide: Hexanoyl-CTQPFPCD-NH2
modifications: linker 1-7 via tMeBn(DOTA-PP)
SMILES: CCCCCC(=O)N[C@H]1CSCc2cc(cc(CN3CCN(C(=O)CN4CCN(CC(=O)O)CCN(CC(=O)O)CCN(CC(=O)O)CC4)CC3)c2)CSC[C@@H](C(=O)N[C@@H](CC(=O)O)C(N)=O)NC(=O)[C@@H]2CCCN2C(=O)[C@H](Cc2ccccc2)NC(=O)[C@@H]2CCCN2C(=O)[C@H](CCC(N)=O)NC(=O)[C@H]([C@@H](C)O)NC1=O
B3: Hex-[Cys(3MeBn)-Pro-Pro-Thr-Glu(NH-Apr-DOTA′)-Phe-Cys]-Asp-NH2 (peptide)
peptide: Hexanoyl-CPPTE([Apr-DOTA′])FCD-NH2
modifications: linker 1-7 via mXylylene; reading uncertain; also: printed as Hex-[Cys(3MeBn)-Pro-Pro-Thr-Glu(NH-Apr-DOTA′)-Phe-Cys]-Asp-NH2
B4: Hex-[Cys(3MeBn)-Pro-Pro-Thr-Glu-Bip-Cys]-NH2 (peptide)
peptide: Hexanoyl-CPPTE[Bip]C-NH2
modifications: linker 1-7 via mXylylene
SMILES: CCCCCC(=O)N[C@H]1CSCc2cccc(c2)CSC[C@@H](C(N)=O)NC(=O)[C@H](Cc2ccc(-c3ccccc3)cc2)NC(=O)[C@H](CCC(=O)O)NC(=O)[C@H]([C@@H](C)O)NC(=O)[C@@H]2CCCN2C(=O)[C@@H]2CCCN2C1=O
B5: Hex-[Cys(3MeBn)-Pro-Pro-Thr-Moo-Phe-Cys]-NH2 (peptide)
peptide: Hexanoyl-CPPT[Met(O2)]FC-NH2
modifications: linker 1-7 via mXylylene
SMILES: CCCCCC(=O)N[C@H]1CSCc2cccc(c2)CSC[C@@H](C(N)=O)NC(=O)[C@H](Cc2ccccc2)NC(=O)[C@H](CCS(C)(=O)=O)NC(=O)[C@H]([C@@H](C)O)NC(=O)[C@@H]2CCCN2C(=O)[C@@H]2CCCN2C1=O
B6: Hex-[Cys(3MeBn)-Pro-Pro-Ala-Glu-Phe-Cys]-NH2 (peptide)
peptide: Hexanoyl-CPPAEFC-NH2
modifications: linker 1-7 via mXylylene
SMILES: CCCCCC(=O)N[C@H]1CSCc2cccc(c2)CSC[C@@H](C(N)=O)NC(=O)[C@H](Cc2ccccc2)NC(=O)[C@H](CCC(=O)O)NC(=O)[C@H](C)NC(=O)[C@@H]2CCCN2C(=O)[C@@H]2CCCN2C1=O
B7: Hex-[Cys(3MeBn)-Pro-Pro-Thr-Ala-Phe-Cys]-NH2 (peptide)
peptide: Hexanoyl-CPPTAFC-NH2
modifications: linker 1-7 via mXylylene
SMILES: CCCCCC(=O)N[C@H]1CSCc2cccc(c2)CSC[C@@H](C(N)=O)NC(=O)[C@H](Cc2ccccc2)NC(=O)[C@H](C)NC(=O)[C@H]([C@@H](C)O)NC(=O)[C@@H]2CCCN2C(=O)[C@@H]2CCCN2C1=O
B8: Hex-[Cys(3MeBn)-Pro-Pro-Thr-Nme-Phe-Cys]-NH2 (peptide)
peptide: Hexanoyl-CPPT[NMeE]FC-NH2
modifications: linker 1-7 via mXylylene
SMILES: CCCCCC(=O)N[C@H]1CSCc2cccc(c2)CSC[C@@H](C(N)=O)NC(=O)[C@H](Cc2ccccc2)NC(=O)[C@H](CCC(=O)O)N(C)C(=O)[C@H]([C@@H](C)O)NC(=O)[C@@H]2CCCN2C(=O)[C@@H]2CCCN2C1=O
B9: Hex-[Cys(3MeBn)-Pro-Pro-Thr-Glu-Nphe-Cys]-NH2 (peptide)
peptide: Hexanoyl-CPPTE[Nphe]C-NH2
modifications: linker 1-7 via mXylylene
SMILES: CCCCCC(=O)N[C@H]1CSCc2cccc(c2)CSC[C@@H](C(N)=O)NC(=O)CN(Cc2ccccc2)C(=O)[C@H](CCC(=O)O)NC(=O)[C@H]([C@@H](C)O)NC(=O)[C@@H]2CCCN2C(=O)[C@@H]2CCCN2C1=O
B10: Hex-[Cys(3MeBn)-Ala-Pro-Thr-Glu-Phe-Cys]-NH2 (peptide)
peptide: Hexanoyl-CAPTEFC-NH2
modifications: linker 1-7 via mXylylene
SMILES: CCCCCC(=O)N[C@H]1CSCc2cccc(c2)CSC[C@@H](C(N)=O)NC(=O)[C@H](Cc2ccccc2)NC(=O)[C@H](CCC(=O)O)NC(=O)[C@H]([C@@H](C)O)NC(=O)[C@@H]2CCCN2C(=O)[C@H](C)NC1=O
B11: Hex-[Cys(3MeBn)-Pro-Pro-Thr-Glu-Ala-Cys]-NH2 (peptide)
peptide: Hexanoyl-CPPTEAC-NH2
modifications: linker 1-7 via mXylylene
SMILES: CCCCCC(=O)N[C@H]1CSCc2cccc(c2)CSC[C@@H](C(N)=O)NC(=O)[C@H](C)NC(=O)[C@H](CCC(=O)O)NC(=O)[C@H]([C@@H](C)O)NC(=O)[C@@H]2CCCN2C(=O)[C@@H]2CCCN2C1=O

The binders below were run against human fibroblast activation protein (FAP) on WI-38 fibroblasts (human) (UniProt Q12884) (assay: competitive FACS, WI-38 cells, Cy5-labeled peptide as competitor). Settings: not given.
Work on B1 yielded a pIC50 Category (FACS) of under 6 pIC50. In the case of B2, the pIC50 Category (FACS) is reported as under 6 pIC50.

What follows are binders tested against fibroblast activation protein (FAP) on FAP-expressing human WI-38 fibroblasts (human) (UniProt Q12884) (assay: competitive FACS, WI-38 cells, vs Cy5 tracer m3; D = pIC50 <=6.0). Settings: not given.
Work on B3 yielded a pIC50 Category (FACS) of under 6 pIC50. In the case of B4, the pIC50 Category (FACS) is reported as under 6 pIC50. B5 showed a pIC50 Category (FACS) of under 6 pIC50. Binder B6 has a pIC50 Category (FACS) of under 6 pIC50. With B7 the pIC50 Category (FACS) was under 6 pIC50. Binder B8 has a pIC50 Category (FACS) of under 6 pIC50. In the case of B9, the pIC50 Category (FACS) is reported as under 6 pIC50.

Each binder was assayed against fibroblast activation protein (FAP) on FAP-expressing human WI-38 fibroblasts (human), Q12884 in the same assay as above. Settings: remark: other sources report otherwise.
Work on B10 yielded a pIC50 Category (FACS) of under 6 pIC50. For B11, the pIC50 Category (FACS) was under 6 pIC50.
